The text below walks through data of paper PMC9400494.

Holding throughout (assay): fluorescence polarization
In general terms: Polarisation of emitted light reports the rotation of a fluorescent probe.

In series [1] the test system is nsp8 (SARS-CoV-2 (Wuhan-1 strain)).
Series [2] deals with nsp12 RdRP (SARS-CoV-2 (Wuhan-1 strain)).
Series [3] relates to nsp8L7 (nsp8-GSGSGS-nsp7 fusion) (SARS-CoV-2 (Wuhan-1 strain)).
Series [4] has as its system nsp7 (SARS-CoV-2 (Wuhan-1 strain)).

Take FP primer-template RNA hairpin: the Kd in series [1] turned out to be 200 nM; in series [2] it was 200 nM; in series [3] it was 200 nM; in series [4] it was 7000 nM.

Broadly, the Kd is the equilibrium constant for the complex coming apart. A lower Kd goes with a tighter complex.
